Target: human plasma fibronectin (human)
Sequence (P02751 other isoform, or with tags, fused parts or gaps): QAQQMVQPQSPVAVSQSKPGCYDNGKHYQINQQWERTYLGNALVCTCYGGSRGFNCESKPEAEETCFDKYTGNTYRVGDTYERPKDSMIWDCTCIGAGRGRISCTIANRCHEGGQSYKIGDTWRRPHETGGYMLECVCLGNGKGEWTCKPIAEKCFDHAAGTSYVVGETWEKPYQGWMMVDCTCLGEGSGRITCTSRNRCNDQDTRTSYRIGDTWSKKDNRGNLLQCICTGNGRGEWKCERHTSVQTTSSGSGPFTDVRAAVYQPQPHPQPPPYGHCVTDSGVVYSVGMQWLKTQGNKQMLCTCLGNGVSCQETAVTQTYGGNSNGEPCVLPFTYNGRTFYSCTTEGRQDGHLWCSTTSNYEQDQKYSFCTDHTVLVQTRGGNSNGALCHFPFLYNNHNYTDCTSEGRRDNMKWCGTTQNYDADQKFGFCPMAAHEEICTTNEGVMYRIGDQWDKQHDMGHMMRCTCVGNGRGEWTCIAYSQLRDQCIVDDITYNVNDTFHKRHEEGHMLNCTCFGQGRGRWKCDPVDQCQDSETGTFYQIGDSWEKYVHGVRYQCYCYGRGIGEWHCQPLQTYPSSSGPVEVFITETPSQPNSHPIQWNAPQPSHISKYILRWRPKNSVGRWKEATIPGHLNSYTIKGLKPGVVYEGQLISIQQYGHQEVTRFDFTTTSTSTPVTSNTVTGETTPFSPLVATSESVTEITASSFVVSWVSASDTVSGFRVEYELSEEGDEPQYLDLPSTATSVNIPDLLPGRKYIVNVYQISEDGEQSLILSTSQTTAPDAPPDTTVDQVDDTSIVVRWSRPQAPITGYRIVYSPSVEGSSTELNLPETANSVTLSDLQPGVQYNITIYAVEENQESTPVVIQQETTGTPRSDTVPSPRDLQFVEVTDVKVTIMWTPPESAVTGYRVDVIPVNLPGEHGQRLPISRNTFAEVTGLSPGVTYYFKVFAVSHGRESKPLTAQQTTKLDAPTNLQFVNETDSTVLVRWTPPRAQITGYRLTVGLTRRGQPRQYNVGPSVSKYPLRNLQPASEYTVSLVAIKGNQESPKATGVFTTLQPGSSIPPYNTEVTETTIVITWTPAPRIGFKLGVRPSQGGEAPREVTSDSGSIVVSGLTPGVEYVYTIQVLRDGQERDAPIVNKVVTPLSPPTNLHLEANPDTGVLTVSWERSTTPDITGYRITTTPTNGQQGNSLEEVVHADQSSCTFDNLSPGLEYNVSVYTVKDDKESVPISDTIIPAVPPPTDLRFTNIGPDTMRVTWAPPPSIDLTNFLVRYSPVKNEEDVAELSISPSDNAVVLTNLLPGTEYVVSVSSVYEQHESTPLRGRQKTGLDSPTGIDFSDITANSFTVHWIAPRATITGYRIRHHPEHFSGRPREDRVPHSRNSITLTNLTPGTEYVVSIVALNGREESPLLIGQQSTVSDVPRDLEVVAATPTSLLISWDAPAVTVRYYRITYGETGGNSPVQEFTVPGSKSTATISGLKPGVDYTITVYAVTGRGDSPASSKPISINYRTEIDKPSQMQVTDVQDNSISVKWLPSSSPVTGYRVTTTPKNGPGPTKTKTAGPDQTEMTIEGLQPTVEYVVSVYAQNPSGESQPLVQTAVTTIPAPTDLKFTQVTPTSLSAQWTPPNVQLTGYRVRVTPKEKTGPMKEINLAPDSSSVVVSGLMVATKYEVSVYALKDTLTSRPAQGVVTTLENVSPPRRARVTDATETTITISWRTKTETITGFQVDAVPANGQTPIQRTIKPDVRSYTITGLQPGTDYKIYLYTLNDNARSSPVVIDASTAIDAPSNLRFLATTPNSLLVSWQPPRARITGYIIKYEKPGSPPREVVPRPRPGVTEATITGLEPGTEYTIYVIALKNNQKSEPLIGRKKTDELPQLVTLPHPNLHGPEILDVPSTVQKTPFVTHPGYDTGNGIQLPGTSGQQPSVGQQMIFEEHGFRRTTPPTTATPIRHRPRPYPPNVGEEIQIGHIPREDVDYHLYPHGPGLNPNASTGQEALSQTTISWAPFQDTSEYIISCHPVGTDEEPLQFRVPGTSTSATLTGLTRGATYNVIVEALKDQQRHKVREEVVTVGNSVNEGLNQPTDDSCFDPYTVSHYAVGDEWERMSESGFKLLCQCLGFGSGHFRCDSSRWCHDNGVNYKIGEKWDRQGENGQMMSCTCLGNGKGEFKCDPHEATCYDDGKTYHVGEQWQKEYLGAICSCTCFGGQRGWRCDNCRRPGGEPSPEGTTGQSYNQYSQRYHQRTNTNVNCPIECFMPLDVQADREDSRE

Kd: < 50 nM
B1: recombinant embigin extracellular domain GST-fusion protein (EMB-GST) (domain or fragment)
chain: DGSAPDSPFTSPPLREEIMANNFSLESHNISLTEHSSMPVEKNITLERPSNVNLTCQFTTSGDLNAVNVTWKKDGEQLENNYLVSATGSTLYTQYRFTIINSKQMGSYSCFFREEKEQRGTFNFKVPELHGKNKPLISYVGDSTVLTCKCQNCFPLNWTWYSSNGSVKVPVGVQMNKYVINGTYANETKLKITQLLEEDGESYWCRALFQLGESEEHIELVVLSYLVP
